Measurements taken from PMC3325190 (PLoS Pathogens, 2012).
[ ]: non-standard residue; d: D form. SeMet = C[Se]CC[C@H](N)C(=O)O

T1: AmrZ delta42 (Pseudomonas aeruginosa PAO1, UniProt G3XCY4 1-66)
T1 sequence: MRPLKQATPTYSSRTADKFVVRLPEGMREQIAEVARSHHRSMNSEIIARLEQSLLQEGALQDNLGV

T2: AmrZ WT (Pseudomonas aeruginosa PAO1, UniProt G3XCY4 1-108)
T2 sequence: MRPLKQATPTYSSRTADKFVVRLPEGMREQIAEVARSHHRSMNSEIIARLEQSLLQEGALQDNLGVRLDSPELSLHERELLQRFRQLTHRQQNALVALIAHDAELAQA


Target: the molecule itself
Test: crystal structure; Se-Met Δ42 AmrZ in complex with 18 bp amrZ1 DNA; hanging drop vapor diffusion at 25°C, 3% PEG8K, 0.1 M MES pH 6.0, 0.15 M NaCl, 2 mM TCEP, 50 mM MgSO4; 3.1 Å; dimer and dimer of dimers seen on the DNA
Settings: not given

Row | Binder | stoichiometry N
1 | Δ42 AmrZ (C-terminal truncation mutant of AmrZ, residues 1–66) (domain or fragment, not shown: poly-Histidine, N-terminal, cleaved) [SeMet]RPLKQATPTYSSRTADKFVVRLPEG[SeMet]REQIAEVARSHHRS[SeMet]NSEIIARLEQSLLQEGALQDNLGV | 4

Target: T1, AmrZ delta42
Test: X-ray crystal structure (3.1 A); 50 mM MgSO4; SeMet protein; 100 mM Bis-Tris pH 6.5, 150 mM NaCl, 5% glycerol, 100 ug/ml BSA, 100 nM nonspecific DNA, 1 nM 6-FAM 22-mer, 25 C
Settings: protein: recombinant; tags: N-terminal poly-His with 3C site, cleaved by PreScission; chain copies: 4

Row | Binder | binding result
2 | amrZ1 18 bp crystal oligo (dsDNA) DNA 1: ACTGGCAAAACGCCGGCA DNA 2: TGCCGGCGTTTTGCCAGT | binds

Target: T2, AmrZ WT
Test: fluorescence anisotropy
Settings: protein: recombinant; tags: N-terminal poly-His with 3C site, cleaved by PreScission; chain copies: 4; blunt

Row | Binder | Kd
3 | WT amrZ1 (dsDNA) DNA 1: GTACTGGCAAAACGCCGGCACG DNA 2: CGTGCCGGCGTTTTGCCAGTAC | 8.41 ± 0.8 nM
4 | GTC amrZ1 (dsDNA) DNA 1: GTACTGTCAAAACGACGGCACG DNA 2: CGTGCCGTCGTTTTGACAGTAC | 82.7 ± 8.6 nM
5 | m17 algD (dsDNA) DNA 1: CATTGGCCATTACCAGACTCCC DNA 2: GGGAGTCTGGTAATGGCCAATG | 212 ± 19 nM
6 | m6 algD (dsDNA) DNA 1: CATTGTCCATTACCAGCCTCCC DNA 2: GGGAGGCTGGTAATGGACAATG | 723 ± 37 nM
7 | TTTT amrZ1 (dsDNA) DNA 1: GTACTGGCTTTTCGCCGGCACG DNA 2: CGTGCCGGCGAAAAGCCAGTAC | 41.7 ± 5.1 nM
8 | TTC amrZ1 (dsDNA) DNA 1: GTACTTTCAAAACGAAGGCACG DNA 2: CGTGCCTTCGTTTTGAAAGTAC | 109 ± 13 nM
9 | CGCG amrZ1 (dsDNA) DNA 1: GTACTGGCCGCGCGCCGGCACG DNA 2: CGTGCCGGCGCGCGGCCAGTAC | 63.4 ± 7.3 nM
10 | m16 algD (dsDNA) DNA 1: CATTGGCCATTACCATCCTCCC DNA 2: GGGAGGATGGTAATGGCCAATG | 203 ± 17 nM
11 | WT algD (dsDNA) DNA 1: CATTGGCCATTACCAGCCTCCC DNA 2: GGGAGGCTGGTAATGGCCAATG | 198 ± 14 nM
12 | m13 algD (dsDNA) DNA 1: CATTGGCCATTAACAGCCTCCC DNA 2: GGGAGGCTGTTAATGGCCAATG | 256 ± 20 nM
13 | TTC/GC amrZ1 (dsDNA) DNA 1: GTACTTTCCGCGCGAAGGCACG DNA 2: CGTGCCTTCGCGCGGAAAGTAC | 2050 ± 180 nM
14 | ATAT amrZ1 (dsDNA) DNA 1: GTACTGGCATATCGCCGGCACG DNA 2: CGTGCCGGCGATATGCCAGTAC | 39.1 ± 4.6 nM
15 | AATT amrZ1 (dsDNA) DNA 1: GTACTGGCAATTCGCCGGCACG DNA 2: CGTGCCGGCGAATTGCCAGTAC | 58.6 ± 7.5 nM
16 | m5 algD (dsDNA) DNA 1: CATTTGCCATTACCAGCCTCCC DNA 2: GGGAGGCTGGTAATGGCAAATG | 164 ± 17 nM
17 | m8 algD (dsDNA) DNA 1: CATTGGCAATTACCAGCCTCCC DNA 2: GGGAGGCTGGTAATTGCCAATG | 365 ± 30 nM
18 | m7 algD (dsDNA) DNA 1: CATTGGACATTACCAGCCTCCC DNA 2: GGGAGGCTGGTAATGTCCAATG | 530 ± 52 nM
19 | m14 algD (dsDNA) DNA 1: CATTGGCCATTACAAGCCTCCC DNA 2: GGGAGGCTTGTAATGGCCAATG | 216 ± 17 nM
